Results taken from the supplement of paper PMC9233669.
Variants at the floor of the assay were thinned out.

Legend:
biotinyl-Leu-oxazolone = assay: self-aminoacylation, catalytic enhancement (BLO) (fold over background); higher = more active; k-Seq, kA / k0A0; sequences stand for … in GGGAAUGGAUCCACAUCUACGAAUUC…UUCACUGCAGACUUGACGAAGCUG
Summary of the method: (§1)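 Mutagenized RNA pools with a 21-nt variable region (0.43 μM) were reacted with each biotinyl-aminoacyl-oxazolone at 2–1250 μM for 90 minutes at room temperature, in 50 μL HEPES/NaCl/KCl/MgCl2/CaCl2 buffer containing 5% acetonitrile at pH 6.9–7.0. RNA captured on streptavidin was quantified by triplicate qPCR and by Illumina sequencing. The fraction reacted for each sequence was fit to a pseudo-first-order model with bootstrapping, and catalytic enhancement is the median kA divided by the uncatalyzed rate, taken as the low-activity peak of a bimodal Gaussian fit.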

biotinyl-Val-oxazolone = assay: self-aminoacylation, catalytic enhancement (BVO) (fold over background); higher = more active; k-Seq, kA / k0A0; sequences stand for … in GGGAAUGGAUCCACAUCUACGAAUUC…UUCACUGCAGACUUGACGAAGCUG
Summary of the method: as §1

biotinyl-Phe-oxazolone = assay: self-aminoacylation, catalytic enhancement (BFO) (fold over background); higher = more active; k-Seq, kA / k0A0; sequences stand for … in GGGAAUGGAUCCACAUCUACGAAUUC…UUCACUGCAGACUUGACGAAGCUG
Summary of the method: as §1

biotinyl-Met-oxazolone = assay: self-aminoacylation, catalytic enhancement (BMO) (fold over background); higher = more active; k-Seq, kA / k0A0; sequences stand for … in GGGAAUGGAUCCACAUCUACGAAUUC…UUCACUGCAGACUUGACGAAGCUG
Summary of the method: as §1

biotinyl-Ile-oxazolone = assay: self-aminoacylation, catalytic enhancement (BIO) (fold over background); higher = more active; k-Seq, kA / k0A0; sequences stand for … in GGGAAUGGAUCCACAUCUACGAAUUC…UUCACUGCAGACUUGACGAAGCUG
Summary of the method: as §1

biotinyl-Trp-oxazolone = assay: self-aminoacylation, catalytic enhancement (BWO) (fold over background); higher = more active; k-Seq, kA / k0A0; sequences stand for … in GGGAAUGGAUCCACAUCUACGAAUUC…UUCACUGCAGACUUGACGAAGCUG
Summary of the method: as §1

Sequence	self-aminoacylation (biotinyl-Leu-oxazolone)	self-aminoacylation (biotinyl-Val-oxazolone)	self-aminoacylation (biotinyl-Phe-oxazolone)	self-aminoacylation (biotinyl-Met-oxazolone)	self-aminoacylation (biotinyl-Ile-oxazolone)	self-aminoacylation (biotinyl-Trp-oxazolone)
AUUCACGUAAGUCAUCGGGUG [Fam2.2 aminoacylation ribozyme variant]	20.4	10.4	148	18.3	9.9	13.3
AUUCACGUAGGACAUCGGGUG [Fam2.2 aminoacylation ribozyme variant]	5.61	4.37	24.5	5.02	3.6	5.55
AUUCACGUAGGGCAUCGGGUG [Fam2.2 aminoacylation ribozyme variant]	6.02	5.03	43.3	4.63	3.79	5.13
AUUCACGUAGGUCACCGGGUG [Fam2.2 aminoacylation ribozyme variant]	8.29	5.08	62.5	7.45	5.08	7.15
AUUCACGUAGGUCAGCGGGUG [Fam2.2 aminoacylation ribozyme variant]	3.04	2.48	16.1	2.52	2.48	2.71
AUUCACGUAGGUCAUCGGGGG [Fam2.2 aminoacylation ribozyme variant]	2.4	2.09	1.73	2.66	2.24	2.53
AUUCACGUAGGUCAUCGGGUG [Fam2.2 aminoacylation ribozyme variant]	7.22	5.15	53.2	6.62	4.22	6.49
AUUCACGUAGGUCAUUGGGUG [Fam2.2 aminoacylation ribozyme variant]	5.11	4	25.2	4.43	3.18	4
AUUCACGUAGGUGAUCGGGUG [Fam2.2 aminoacylation ribozyme variant]	4.12	3.52	20.3	3.98	2.91	3.33
AUUCACGUAGGUUAUCGGGUG [Fam2.2 aminoacylation ribozyme variant]	4.91	5.09	38.9	5.38	3.34	4.68
AUUCACUUAAGUCAUCGGGUG [Fam2.2 aminoacylation ribozyme variant]	12.4	5.11	71.7	8.88	5.72	9.67
AUUCACUUAGGUCAUCGAGUG [Fam2.2 aminoacylation ribozyme variant]	2.75	1.64	4.43	2.42	1.68	1.99
AUUCACUUAGGUCAUCGCGUG [Fam2.2 aminoacylation ribozyme variant]	15	6.11	94.5	11.7	6.03	11.1
AUUCACUUAGGUCAUCGGAUG [Fam2.2 aminoacylation ribozyme variant]	0.579	0.714	0.46	0.766	0.701	0.528
AUUCACUUAGGUCAUCGGCUG [Fam2.2 aminoacylation ribozyme variant]	1.17	1.65	4.69	1.47	1.46	1.45
AUUCACUUAGGUCAUCGGGGG [Fam2.2 aminoacylation ribozyme variant]	2.74	1.95	2.12	2.13	2.04	2.16
AUUCACUUAGGUCAUCGUGUG [Fam2.2 aminoacylation ribozyme variant]	0.869	0.777	0.821	0.802	0.779	0.747
AUUCACUUAGGUGAUCGGGUG [Fam2.2 aminoacylation ribozyme variant]	3.43	2.5	13.3	2.59	2.46	3.03
AUUCACUUAUGUCAUCGGGUG [Fam2.2 aminoacylation ribozyme variant]	7.31	3.08	42.6	5.5	3.42	5.18
AUUCACUUGGGUCAUCGGGUG [Fam2.2 aminoacylation ribozyme variant]	7.5	4.44	43.9	6.84	4.61	6.5
AUUCAGCUAGAUCAUCGGGUG [Fam2.2 aminoacylation ribozyme variant]	4.61	2.85	26.3	4.04	2.71	3.9
AUUCAGCUAGGACAUCGGGUG [Fam2.2 aminoacylation ribozyme variant]	5.98	3.53	42.1	4.65	3.53	4.43
AUUCAGCUAGGUCAACGGGUG [Fam2.2 aminoacylation ribozyme variant]	2.43	1.83	5.84	1.92	1.81	2.6
